Here are results for 2 proteins from article PMC10241002 (Autophagy, 2022).

The data set deals with the molecule itself. In words: single-molecule fluorescence stoichiometry analysis.

B1: Atg9-GFP (purified, GFP-3xFLAG fusion) (natural protein, S. cerevisiae, UniProt Q12142 1-997, looked up)
chain: MERDEYQLPNSHGKNTFLSRIFGLQSDEVNPSLNSQEMSNFPLPDIERGSSLLHSTNDSREDVDENDLRVPESDQGTSTEEEDEVDEEQVQAYAPQISDGLDGDHQLNSVTSKENVLETEKSNLERLVEGSTDDSVPKVGQLSSEEEEDNEFINNDGFDDDTPLFQKSKIHEFSSKKSNTIEDGKRPLFFRHILQNNRPQRDTQKLFTSSNAIHHDKDKSANNGPRNINGNQKHGTKYFGSATQPRFTGSPLNNTNRFTKLFPLRKPNLLSNISVLNNTPEDRINTLSVKERALWKWANVENLDIFLQDVYNYYLGNGFYCIILEKILNICTLLFVVFVSTYMGHCVDYSKLPTSHRVSDIIIDKCYSNSITGFTKFFLWMFYFFVILKIVQLYFDVQKLSELQNFYKYLLNISDDELQTLPWQNVIQQLMYLKDQNAMTANVVEVKAKNRIDAHDVANRIMRRENYLIALYNSDILNLSLPIPLFRTNVLTKTLEWNINLCVMGFVFNESGFIKQSILKPSQREFTREELQKRFMLAGFLNIILAPFLVTYFVLLYFFRYFNEYKTSPGSIGARQYTPIAEWKFREYNELYHIFKKRISLSTTLANKYVDQFPKEKTNLFLKFVSFICGSFVAILAFLTVFDPENFLNFEITSDRSVIFYITILGAIWSVSRNTITQEYHVFDPEETLKELYEYTHYLPKEWEGRYHKEEIKLEFCKLYNLRIVILLRELTSLMITPFVLWFSLPSSAGRIVDFFRENSEYVDGLGYVCKYAMFNMKNIDGEDTHSMDEDSLTKKIAVNGSHTLNSKRRSKFTAEDHSDKDLANNKMLQSYVYFMDDYSNSENLTGKYQLPAKKGYPNNEGDSFLNNKYSWRKQFQPGQKPELFRIGKHALGPGHNISPAIYSTRNPGKNWDNNNNGDDIKNGTNNATAKNDDNNGNNDHEYVLTESFLDSGAFPNHDVIDHNKMLNSNYNGNGILNKGGVLGLVKEYYKKSDVGR
For B1, the binding result is listed as “binds”.

B2: Atg9^F627A-GFP (purified, GFP-3xFLAG fusion) (natural protein, S. cerevisiae, UniProt Q12142 1-997, looked up)
chain: MERDEYQLPNSHGKNTFLSRIFGLQSDEVNPSLNSQEMSNFPLPDIERGSSLLHSTNDSREDVDENDLRVPESDQGTSTEEEDEVDEEQVQAYAPQISDGLDGDHQLNSVTSKENVLETEKSNLERLVEGSTDDSVPKVGQLSSEEEEDNEFINNDGFDDDTPLFQKSKIHEFSSKKSNTIEDGKRPLFFRHILQNNRPQRDTQKLFTSSNAIHHDKDKSANNGPRNINGNQKHGTKYFGSATQPRFTGSPLNNTNRFTKLFPLRKPNLLSNISVLNNTPEDRINTLSVKERALWKWANVENLDIFLQDVYNYYLGNGFYCIILEKILNICTLLFVVFVSTYMGHCVDYSKLPTSHRVSDIIIDKCYSNSITGFTKFFLWMFYFFVILKIVQLYFDVQKLSELQNFYKYLLNISDDELQTLPWQNVIQQLMYLKDQNAMTANVVEVKAKNRIDAHDVANRIMRRENYLIALYNSDILNLSLPIPLFRTNVLTKTLEWNINLCVMGFVFNESGFIKQSILKPSQREFTREELQKRFMLAGFLNIILAPFLVTYFVLLYFFRYFNEYKTSPGSIGARQYTPIAEWKFREYNELYHIFKKRISLSTTLANKYVDQFPKEKTNLFLKFVSAICGSFVAILAFLTVFDPENFLNFEITSDRSVIFYITILGAIWSVSRNTITQEYHVFDPEETLKELYEYTHYLPKEWEGRYHKEEIKLEFCKLYNLRIVILLRELTSLMITPFVLWFSLPSSAGRIVDFFRENSEYVDGLGYVCKYAMFNMKNIDGEDTHSMDEDSLTKKIAVNGSHTLNSKRRSKFTAEDHSDKDLANNKMLQSYVYFMDDYSNSENLTGKYQLPAKKGYPNNEGDSFLNNKYSWRKQFQPGQKPELFRIGKHALGPGHNISPAIYSTRNPGKNWDNNNNGDDIKNGTNNATAKNDDNNGNNDHEYVLTESFLDSGAFPNHDVIDHNKMLNSNYNGNGILNKGGVLGLVKEYYKKSDVGR
The term stoichiometry N denotes a count of units in the complex or per binding partner. Turning to B2, the “stoichiometry N” value stood at 3.
